Here are results for five molecules from publication PMC4570272.

Sequences and labels used below:
T1: Puf5p RNA-binding domain (Saccharomyces cerevisiae, UniProt P39016 201-600)
T1 sequence: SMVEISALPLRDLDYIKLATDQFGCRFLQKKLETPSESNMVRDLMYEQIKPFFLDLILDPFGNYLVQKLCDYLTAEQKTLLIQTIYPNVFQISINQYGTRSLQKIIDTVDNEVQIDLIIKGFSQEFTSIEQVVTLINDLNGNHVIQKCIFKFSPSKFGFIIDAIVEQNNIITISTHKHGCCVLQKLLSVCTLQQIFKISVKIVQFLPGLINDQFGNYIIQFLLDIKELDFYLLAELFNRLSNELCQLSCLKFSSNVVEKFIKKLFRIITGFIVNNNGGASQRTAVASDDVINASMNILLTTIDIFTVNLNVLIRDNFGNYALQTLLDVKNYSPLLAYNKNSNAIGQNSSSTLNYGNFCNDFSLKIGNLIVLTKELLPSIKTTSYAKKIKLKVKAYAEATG

B1: AAT2 (11) (ssRNA)
RNA: UGUAAUGAUUA
B2: NRE (8) (ssRNA)
RNA: UGUAUAUA
B3: SMX2 (9) (ssRNA)
RNA: UGUACUAUA
B4: MFA2 (10) (ssRNA)
RNA: UGUAUUUGUA
B5: AMN1 (12) (ssRNA)
RNA: UGUAACUUUUUA

This series addresses T1, Puf5p RNA-binding domain. Description: EMSA; EMSA: 10 mM HEPES pH 7.4, 50 mM NaCl, 1 mM EDTA, 0.1 mg/ml BSA, 0.01% Tween 20, 0.1 mg/ml yeast tRNA, 100 pM RNA, overnight at 4 C. On the technique in general: A gel shift assay detects complexes by their altered migration in electrophoresis.
One may read the Kd as the constant that tells how readily two partners part at equilibrium. B1 yielded a Kd of 345 nM.

Consider B2, for which binding was characterised by a dissociation constant (Kd) of 3200 nM.

On to B3, for which the Kd is 28.4 nM.

Molecule B4 came in with a Kd of 179 nM.

The molecule B5 displayed a Kd of 106 nM.
